Data on seven molecules can be found in paper PMC7026264, “Crystal structures of N-terminal WRKY transcription factors and DNA complexes”.

Data set [1] has as its target T1, AtWRKY1-N (Arabidopsis, UniProt Q9SI37 108-169). The data set is described as follows: ITC; ITC: 25 mM HEPES pH 7.0, 100 mM NaCl, 20 C, 0.25 mM protein into 0.026 mM DNA; EMSA: 25 mM HEPES pH 7.0, 100 mM NaCl, 5% glycerol, 6 pmol DNA in 6 ul, 4 C 20 min. To be noted: protein: recombinant; tags: C-terminal His; blunt.
In data set [2] the target is AtWRKY1-C (Arabidopsis, UniProt Q9SI37 301-366). The data set is described as above. To be noted: protein: recombinant; tags: C-terminal His; blunt.
Data set [3] has as its target AtWRKY1 101-339 (Arabidopsis, UniProt Q9SI37-2 101-339). The data set is described as follows: ITC; N=0.5, two DNA per protein; 0.11 mM protein into 0.026 mM DNA; ITC: 25 mM HEPES pH 7.0, 100 mM NaCl, 20 C, 0.25 mM protein into 0.026 mM DNA; EMSA: 25 mM HEPES pH 7.0, 100 mM NaCl, 5% glycerol, 6 pmol DNA in 6 ul, 4 C 20 min. To be noted: protein: recombinant; tags: C-terminal His; blunt.

The target of data set [4] is AtWRKY2-N (Arabidopsis, UniProt Q9FG77 270-332). Put plainly: crystal structure; 2.4 A; zinc finger; ITC: 25 mM HEPES pH 7.0, 100 mM NaCl, 20 C, 0.25 mM protein into 0.026 mM DNA; EMSA: 25 mM HEPES pH 7.0, 100 mM NaCl, 5% glycerol, 6 pmol DNA in 6 ul, 4 C 20 min. The following applies: protein: recombinant; tags: C-terminal His; 5' overhang 1 nt at each end. For orientation: Mobility shift assays separate free from complexed probe on a gel.

Data set [5] deals with AtWRKY33-N (Arabidopsis, UniProt Q8S8P5 185-242). Put plainly: crystal structure; 3.0 A; zinc finger; ITC: 25 mM HEPES pH 7.0, 100 mM NaCl, 20 C, 0.25 mM protein into 0.026 mM DNA; EMSA: 25 mM HEPES pH 7.0, 100 mM NaCl, 5% glycerol, 6 pmol DNA in 6 ul, 4 C 20 min. The following applies: protein: recombinant; tags: C-terminal His; 5' overhang 1 nt at each end.
The target in data set [6] is T1, AtWRKY1-N. The description is as above. To be noted: protein: recombinant; tags: C-terminal His; 5' overhang 1 nt at each end.
Data set [7] concerns the target AtWRKY1-N K118A (Arabidopsis, UniProt Q9SI37 108-169, K118A). Put plainly: EMSA; ITC: 25 mM HEPES pH 7.0, 100 mM NaCl, 20 C, 0.25 mM protein into 0.026 mM DNA; EMSA: 25 mM HEPES pH 7.0, 100 mM NaCl, 5% glycerol, 6 pmol DNA in 6 ul, 4 C 20 min. The following applies: protein: recombinant; tags: C-terminal His; label: 5' Cy3 on strand 1; blunt.
For data set [8], the target named is AtWRKY1-N Y119A (Arabidopsis, UniProt Q9SI37 108-169, Y119A). Described as above. The following applies: protein: recombinant; tags: C-terminal His; label: 5' Cy3 on strand 1; blunt.
In data set [9] the target is AtWRKY1-N K144A (Arabidopsis, UniProt Q9SI37 108-169, K144A). The data set is described as above. To be noted: protein: recombinant; tags: C-terminal His; label: 5' Cy3 on strand 1; blunt.
Data set [10] has as its target AtWRKY1-N R117A (Arabidopsis, UniProt Q9SI37 108-169, R117A). Described as above. To be noted: protein: recombinant; tags: C-terminal His; label: 5' Cy3 on strand 1; blunt.
For data set [11], the target named is AtWRKY1-N R135A (Arabidopsis, UniProt Q9SI37 108-169, R135A). Described as above. The following applies: protein: recombinant; tags: C-terminal His; label: 5' Cy3 on strand 1; blunt.
In data set [12] the target is AtWRKY1-N Q121A (Arabidopsis, UniProt Q9SI37 108-169, Q121A). The data set is described as above. The following applies: protein: recombinant; tags: C-terminal His; label: 5' Cy3 on strand 1; blunt.
In data set [13] the target is AtWRKY1-N Y133A (Arabidopsis, UniProt Q9SI37 108-169, Y133A). The data set is described as above. The following applies: protein: recombinant; tags: C-terminal His; label: 5' Cy3 on strand 1; blunt.
Data set [14] deals with AtWRKY1-N K122A (Arabidopsis, UniProt Q9SI37 108-169, K122A). The description is as above. The following applies: protein: recombinant; tags: C-terminal His; label: 5' Cy3 on strand 1; blunt.
The target of data set [15] is T1, AtWRKY1-N. The data set is described as follows: ITC; ITC: 25 mM HEPES pH 7.0, 100 mM NaCl, 20 C, 0.25 mM protein into 0.026 mM DNA; EMSA: 25 mM HEPES pH 7.0, 100 mM NaCl, 5% glycerol, 6 pmol DNA in 6 ul, 4 C 20 min. To be noted: protein: recombinant; tags: C-terminal His; blunt. The source holds these as a separate data set. For orientation: ITC needs no label: the signal is the heat of the interaction.

Data set [16] concerns the target T1, AtWRKY1-N. The data set is described as above. To be noted: protein: recombinant; tags: C-terminal His; blunt. This is another data set of the same source.

T1 sequence (Q9SI37 108-169): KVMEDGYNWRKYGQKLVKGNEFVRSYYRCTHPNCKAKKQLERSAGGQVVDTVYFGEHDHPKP
Chain of AtWRKY1-N K118A (Q9SI37 108-169 K118A): as the sequence (Q9SI37 108-169) above, with K11A counted along it
Chain of AtWRKY1-N R117A (Q9SI37 108-169 R117A): as the sequence (Q9SI37 108-169) above, with R10A counted along it
Chain of AtWRKY1-N Q121A (Q9SI37 108-169 Q121A): as the sequence (Q9SI37 108-169) above, with Q14A counted along it
Chain of AtWRKY1-N R135A (Q9SI37 108-169 R135A): as the sequence (Q9SI37 108-169) above, with R28A counted along it
Chain of AtWRKY33-N (Q8S8P5 185-242): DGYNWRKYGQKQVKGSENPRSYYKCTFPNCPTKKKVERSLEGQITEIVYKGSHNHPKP
Chain of AtWRKY1-N K144A (Q9SI37 108-169 K144A): as the sequence (Q9SI37 108-169) above, with K37A counted along it
Chain of AtWRKY1-N Y119A (Q9SI37 108-169 Y119A): as the sequence (Q9SI37 108-169) above, with Y12A counted along it
Chain of AtWRKY1-C (Q9SI37 301-366): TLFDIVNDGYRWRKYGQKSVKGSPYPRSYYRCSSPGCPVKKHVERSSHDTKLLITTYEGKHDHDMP
Chain of AtWRKY2-N (Q9FG77 270-332): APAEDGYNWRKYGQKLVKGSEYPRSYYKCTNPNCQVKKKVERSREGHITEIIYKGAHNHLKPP
Chain of AtWRKY1-N K122A (Q9SI37 108-169 K122A): as the sequence (Q9SI37 108-169) above, with K15A counted along it
Chain of AtWRKY1 101-339 (Q9SI37 other isoform, or with tags, fused parts or gaps): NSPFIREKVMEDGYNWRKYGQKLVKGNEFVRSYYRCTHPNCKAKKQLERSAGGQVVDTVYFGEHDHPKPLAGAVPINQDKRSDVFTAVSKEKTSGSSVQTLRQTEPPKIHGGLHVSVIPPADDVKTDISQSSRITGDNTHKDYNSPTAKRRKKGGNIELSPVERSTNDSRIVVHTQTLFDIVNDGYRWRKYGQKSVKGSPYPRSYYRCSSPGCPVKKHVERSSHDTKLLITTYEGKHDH
Chain of AtWRKY1-N Y133A (Q9SI37 108-169 Y133A): as the sequence (Q9SI37 108-169) above, with Y26A counted along it

B1: W-box DNA for ITC (dsDNA)
DNA 1: CGCCTTTGACCAGCGC
DNA 2: GCGCTGGTCAAAGGCG
Consider B1, for which the Kd in [1] is approximately 100 nM; in data set [2], 1300 nM; in data set [3] it was 500 nM.

B2: W-box DNA for crystallization (15 bp) (dsDNA)
DNA 1: AGCCTTTGACCAGCG
DNA 2: TCGCTGGTCAAAGGC
Take B2: the binding result in data set [4], in data set [5] and in [6] was “binds” each time.

B3: G7'C9' to A7'A9' (dsDNA)
DNA 1: CGCCTTTTATCAGCGC
DNA 2: GCGCTGATAAAAGGCG
Take B3: the Kd in [1] is 7600 nM.

B4: W-box DNA for EMSA (dsDNA)
DNA 1: CGCCTTTGACCAGCGC
DNA 2: GCGCTGGTCAAAGGCG
Turning to B4, the binding result in data set [7] was “binds”; in data set [8], “binds”; in [9], “no binding”; in [10] it was “binds”; in data set [11], “no binding”; in data set [12], “no binding”. In addition, the binding result in data set [13] and in data set [14] was “no binding” throughout.

B5: T8' to A8' (dsDNA)
DNA 1: CGCCTTTGTCCAGCGC
DNA 2: GCGCTGGACAAAGGCG
In the case of B5, the binding signal in data set [15] is 12 fold decrease in affinity vs W-box.

B6: T6T7 to C6G7 (dsDNA)
DNA 1: CGCCTCGGACCAGCGC
DNA 2: GCGCTGGTCCGAGGCG
In the case of B6, the binding signal in [15] is 4.5 fold decrease in affinity vs W-box.

B7: G6' to T6' (dsDNA)
DNA 1: GCGCTTGTCAAAGGCG
DNA 2: CGCCTTTGACAAGCGC
As for B7, the binding signal in data set [16] was 2.5 fold decrease in affinity vs W-box.

By Kd is commonly meant a measure of binding affinity in units of concentration.
